Experimental data: PMC11279923, “Assessment of Radiolabelled Derivatives of R954 for Detection of Bradykinin B1 Receptor in Cancer Cells: Studies on Glioblastoma Xenografts in Mice” (Pharmaceuticals, 2024)
Read-outs that look alike come from different tables or passages of the source. Non-standard residues stand in square brackets, D forms with d. Residues, ends and D or L forms follow the SMILES beside them. *: point of attachment. DOTA = O=C(O)CN1CCN(CC(=O)O)CCN(CC(=O)*)CCN(CC(=O)O)CC1; Oic = O=C(O)[C@@H]1C[C@@H]2CCCC[C@@H]2N1; d2Nal = N[C@H](Cc1ccc2ccccc2c1)C(=O)O; αMeF = C[C@](N)(Cc1ccccc1)C(=O)O; Orn = NCCC[C@H](N)C(=O)O; Ahx = NCCCCCC(=O)O

Tests used:
B1R [1] = target: T1, B1R (Homo sapiens, UniProt P46663); assay: Saturation binding assay with Scatchard analysis on U87MG cells; set-up: could detect B1R endogenously expressed in glioblastoma cells; host or cells: U87MG human glioblastoma cells (intact, adherent); conditions: tracer 0.7-358 nM, NSB with 100 µM R954, Scatchard analysis, mean of three independent experiments
T1 sequence (P46663 1-353): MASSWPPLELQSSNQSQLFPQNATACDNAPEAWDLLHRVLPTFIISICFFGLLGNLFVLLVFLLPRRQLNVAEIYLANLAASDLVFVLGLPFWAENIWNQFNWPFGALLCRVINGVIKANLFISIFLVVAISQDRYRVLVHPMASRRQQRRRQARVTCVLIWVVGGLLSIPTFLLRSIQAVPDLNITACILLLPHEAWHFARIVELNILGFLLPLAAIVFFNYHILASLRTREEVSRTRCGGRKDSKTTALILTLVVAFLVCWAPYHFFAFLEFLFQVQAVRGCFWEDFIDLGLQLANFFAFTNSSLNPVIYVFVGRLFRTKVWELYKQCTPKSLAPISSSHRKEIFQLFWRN
Experimental: The affinity of [^111In]In-DOTA-Ahx-R954 for B1R in the cells was measured using an R954 saturation assay with increasing concentrations of [^111In]In-DOTA-Ahx-R954 (range 0.7–358 nM). The Scatchard plot was used to estimate the Kd and Bmax values. The parameters were presented as means of three independent experiments (one assay performed on type I collagen-coated plates and two assays performed on Poly-D-Lysine plates).

U87MG tumour xenografts = tested on: U87MG tumour xenografts; set-up: species or system BALBc nu/nu male mice; conditions: mouse, in vivo
Experimental: Five-week-old BALBc nu/nu male mice (Japan SLC, Inc., Hamamatsu, Japan) were xenografted by subcutaneous injection of U87MG cells (5 × 10^6 cells per 50 μL of culture medium) into their right hind legs. The mice were subjected to biodistribution studies when the tumour weight reached 0.1−0.5 g.
Mice bearing U87MG tumour xenografts were injected via the tail vein with 100 μL of [^111In]In-DOTA-Ahx-R954 (30–74 kBq; 0.01–0.02 nmol) and were sacrificed and dissected 1, 4, and 24 h after administration. […] R954 was co-injected with [^111In]In-DOTA-Ahx-R954, and mice were sacrificed and dissected 1 and 4 h after administration. The tissues of interest were removed and weighed, and radioactivity was determined using an auto-well gamma counter. The results are presented as a percentage of the injected dose per gram (% dose/g).

U87MG cells = assay: Blocking of [^111In]In-DOTA-Ahx-R954 cell accumulation by B1R antagonist or agonist; type: cell-based, human; conditions: 100 µM blocker, 120 min, n = 4
Experimental: (§1) Human glioblastoma cell lines U87MG and U251MG were obtained from the American Type Culture Collection (Manassas, VA, USA) and kept under standard cell culture conditions (5% CO2, 37 °C). Cells were cultured in Eagle’s minimum essential medium (E-MEM; FUJIFILM Wako Pure Chemical Co.) supplemented with 10% v/v foetal bovine serum (BioWest S.A.S, Nuaillé, France), 1% v/v nonessential amino acids (FUJIFILM Wako Pure Chemical Co.), 1 mM sodium pyruvate (FUJIFILM Wako Pure Chemical Co.), and 1% v/v penicillin–streptomycin (10,000 unit-10 mg/mL; FUJIFILM Wako Pure Chemical Co.). Cells were seeded at a density of 1 × 10^5 cells/well in Poly-D-Lysine 24-well plates (Corning Inc., Corning, NY, USA). After 24 h, the medium was removed, and the cells were washed with 500 μL of 0.01 M PBS (+) (FUJIFILM Wako Pure Chemical Co.) and incubated at 37 °C in 500 μL of Hanks Balanced Salt Solution (+) (HBSS (+); FUJIFILM Wako Pure Chemical Co.) for 10 min. […] The value at 0 min was determined by an assay performed using the same protocol as that used immediately after removing the incubation solution. Cell lysate radioactivity was measured using an auto-well gamma counter (2470 WIZARD^2; PerkinElmer, Inc., Shelton, CT, USA), and the protein content of the lysates was measured using a Pierce™ BCA protein assay kit (Thermo Fisher Scientific, Inc., Waltham, MA, USA). […]

U251MG cells = assay: as above; type: cell-based, human; conditions: 100 µM blocker, 120 min, n = 4
Experimental: as §1

B1R [2] = conditions: B1R agonist; cited from earlier work
B1R [3] = target: T1, B1R; set-up: could detect B1R endogenously expressed in glioblastoma cells; host or cells: U87MG human glioblastoma cells (intact, adherent); conditions: lung fibroblast cell membrane; read-out: binding affinity (Kd); cited from earlier work
Excerpt: (§2) Our study has several potential limitations. […] Although we could not evaluate the diagnostic utility of [^111In]In-DOTA-Ahx-R954 by comparing it with previously reported probes for SPECT and PET using parameters obtained under the same experimental conditions, improving the ...

B1R [4] = target: T1, B1R; set-up: could detect B1R endogenously expressed in glioblastoma cells; conditions: B1R+ HEK293T cell membrane; read-out: binding affinity (Kd); cited from earlier work
Excerpt: as §2

CC[C@H](C)[C@H](NC(=O)[C@@H](Cc1ccc2ccccc2c1)NC(=O)[C@H](CO)NC(=O)[C@](C)(Cc1ccccc1)NC(=O)CNC(=O)[C@@H]1CCCN1C(=O)[C@@H]1C[C@@H]2CCCC[C@@H]2N1C(=O)[C@H](CCCNC(=N)N)NC(=O)[C@H](CCCN)NC(=O)CCCCCNC(=O)CN1CCN(CC(=O)O)CCN(CC(=O)O)CCN(CC(=O)O)CC1)C(=O)O [[^111In]In-DOTA-Ahx-R954, metal not drawn] ({DOTA-Ahx}-[Orn]R[Oic]PG[αMeF]S[d2Nal]I-OH)
Kd (B1R [1]): 54.1 ± 18.9 nM
blood-brain barrier penetration (U87MG tumour xenografts): poor
reduction of radioactivity level in plasma compared to 1 h (U87MG tumour xenografts): 98%
reduction of radioactivity level in tumour compared to 1 h (U87MG tumour xenografts): 48%

[des-Arg^10]-kallidin
change in accumulated radioactivity in blocking study (U87MG cells): significant decrease
change in accumulated radioactivity in blocking study (U251MG cells): not in U251MG cells
pEC50 (B1R [2]): 9.7

[^3H](des-Arg^10, Leu^9)-kallidin
Kd (B1R [3]): 0.33 ± 0.07 nM
Kd (B1R [4]): 1.9 ± 0.5 nM
